In patent US20090035321A1, “Intercellular adhesion molecules and their binding ligands” (Boehringer Ingelheim Pharmaceuticals, Inc., published 2009):

Assays:
Experiment in all cases: COS cells on LFA-1 coated plastic
[1] = molecular target: ICAM-1 E59/Q (human, UniProt P05362)
[2] = molecular target: ICAM-1 S61/I (human, UniProt P05362)
[3] = molecular target: ICAM-1 N240DS/KNA (human, UniProt P05362)
[4] = molecular target: ICAM-1 V136GE/GVK (human, UniProt P05362)
[5] = molecular target: ICAM-1 D60/N (human, UniProt P05362)
[6] = molecular target: ICAM-1 D60/K (human, UniProt P05362)
[7] = molecular target: ICAM-1 M64/I (human, UniProt P05362)
[8] = molecular target: ICAM-1 N175TSA/QTLG (human, UniProt P05362)
[9] = molecular target: ICAM-1 Y52/F (human, UniProt P05362)
[10] = molecular target: ICAM-1 N56V/HM (human, UniProt P05362)
[11] = molecular target: ICAM-1 Q73/H (human, UniProt P05362)
[12] = molecular target: ICAM-1 D71GQS/NGEL (human, UniProt P05362)
[13] = molecular target: ICAM-1 E34/A (human, UniProt P05362)
[14] = molecular target: ICAM-1 T20CS/ACT (human, UniProt P05362)
[15] = molecular target: ICAM-1 H152HGA/EEGS (human, UniProt P05362)
[16] = molecular target: ICAM-1 N68/K (human, UniProt P05362)
[17] = molecular target: ICAM-1 R13/E (human, UniProt P05362)
[18] = molecular target: ICAM-1 Q73/T (human, UniProt P05362)
[19] = molecular target: ICAM-1 D229QR/HLE (human, UniProt P05362)
[20] = molecular target: ICAM-1 N103/K (human, UniProt P05362)
[21] = molecular target: ICAM-1 G15/SA (human, UniProt P05362)
[22] = molecular target: ICAM-1 R13G/EA (human, UniProt P05362)
[23] = molecular target: ICAM-1 D26QPK/ALPE (human, UniProt P05362)
[24] = molecular target: ICAM-1 R125/E (human, UniProt P05362)
[25] = molecular target: ICAM-1 Q1/E (human, UniProt P05362)
[26] = molecular target: ICAM-1 E59/K (human, UniProt P05362)
[27] = molecular target: Intercellular Adhesion Molecule-1 (ICAM-1), wild type, on the cell surface (human) (UniProt P05362)
[28] = molecular target: ICAM-1 A115N/SV (printed A155N/SV at paragraph 410) (human) (UniProt P05362)
[29] = molecular target: ICAM-1 N156/E (human, UniProt P05362)
[30] = molecular target: ICAM-1 S5/T (human) (UniProt P05362)
[31] = molecular target: ICAM-1 K77T/ES (human, UniProt P05362)
[32] = molecular target: ICAM-1 E254DE/KEK (human, UniProt P05362)
[33] = molecular target: ICAM-1 D213GL/HGV (human, UniProt P05362)
[34] = molecular target: ICAM-1 Q62PM/API (human, UniProt P05362)
[35] = molecular target: ICAM-1 A189T/SI (human, UniProt P05362)
[36] = molecular target: ICAM-1 R149RD/EEG (human, UniProt P05362)
[37] = molecular target: ICAM-1 D60S/KL (human, UniProt P05362)
[38] = molecular target: ICAM-1 T75/A (human, UniProt P05362)
[39] = molecular target: ICAM-1 K128/R (human, UniProt P05362)
[40] = molecular target: ICAM-1 N118/Q (human, UniProt P05362)
[41] = molecular target: ICAM-1 Y66/T (human, UniProt P05362)
[42] = molecular target: ICAM-1 K39KE/ERQ (human, UniProt P05362)
[43] = molecular target: ICAM-1 Q58/H (human, UniProt P05362)
[44] = molecular target: ICAM-1 Y52/FA (human, UniProt P05362)

purified LFA-1, bound to plastic (from UniProt P20701) (receptor)
LFA-1 Binding % (% of wild type) [1]: 84 | LFA-1 Binding % (% of wild type) [2]: 59 | LFA-1 Binding % (% of wild type) [3]: 147 | LFA-1 Binding % (% of wild type) [4]: 92 | LFA-1 Binding % (% of wild type) [5]: 92 | LFA-1 Binding % (% of wild type) [6]: 14 | LFA-1 Binding % (% of wild type) [7]: 111 | LFA-1 Binding % (% of wild type) [8]: 26 | LFA-1 Binding % (% of wild type) [9]: 72 | LFA-1 Binding % (% of wild type) [10]: 121 | LFA-1 Binding % (% of wild type) [11]: 12 | LFA-1 Binding % (% of wild type) [12]: 1 | LFA-1 Binding % (% of wild type) [13]: 0 | LFA-1 Binding % (% of wild type) [14]: 91 | LFA-1 Binding % (% of wild type) [15]: 85 | LFA-1 Binding % (% of wild type) [16]: 101 | LFA-1 Binding % (% of wild type) [17]: 1 | LFA-1 Binding % (% of wild type) [18]: 40 | LFA-1 Binding % (% of wild type) [19]: 90 | LFA-1 Binding % (% of wild type) [20]: 12 | LFA-1 Binding % (% of wild type) [21]: 120 | LFA-1 Binding % (% of wild type) [22]: 2 | LFA-1 Binding % (% of wild type) [23]: 30 | LFA-1 Binding % (% of wild type) [24]: 81 | LFA-1 Binding % (% of wild type) [25]: 175 | LFA-1 Binding % (% of wild type) [26]: 134 | % of COS cells bound (mean) [27]: 33% | LFA-1 Binding % (% of wild type) [28]: 0 | LFA-1 Binding % (% of wild type) [29]: 60 | LFA-1 Binding % (% of wild type) [30]: 104 | LFA-1 Binding % (% of wild type) [31]: 87 | LFA-1 Binding % (% of wild type) [32]: 122 | LFA-1 Binding % (% of wild type) [33]: 90 | LFA-1 Binding % (% of wild type) [34]: 104 | LFA-1 Binding % (% of wild type) [35]: 91 | LFA-1 Binding % (% of wild type) [36]: 81 | LFA-1 Binding % (% of wild type) [37]: 1 | LFA-1 Binding % (% of wild type) [38]: 59 | LFA-1 Binding % (% of wild type) [39]: 109 | LFA-1 Binding % (% of wild type) [40]: 54 | LFA-1 Binding % (% of wild type) [41]: 135 | LFA-1 Binding % (% of wild type) [42]: 99 | LFA-1 Binding % (% of wild type) [43]: 109 | LFA-1 Binding % (% of wild type) [44]: 138
